The values that follow come from patent publication US20250066503A1, “CELL INJURY INDUCING THERAPEUTIC DRUG FOR USE IN CANCER THERAPY” (CHUGAI SEIYAKU KABUSHIKI KAISHA, priority 2016, published 2025).

Experiment [1] deals with MKN74, FU-97, SNU-1, SCC152, KYSE70, PC-10, HuH-7, TOV-21G, RMG-1 and STM-03 xenograft tumors. The experiment is described as follows: In vivo drug efficacy, NOD scid/T cell-injected model, xenograft tumors of various cancer types. Particulars: 1 mg/kg once through the tail vein; compared to the vehicle-administered group. More on the design: species or system NOD scid mice. The method, then:
(§1) Methods called an NOD scid/T cell-injected model, a humanized NOG mouse model, and a human CD3εδγ gene-modified mouse model were used in the in vivo drug efficacy evaluation. Assay using an NOD scid/T cell-injected model was performed as follows. […] T cells expanded by culturing human PBMCs in vitro were injected into the NOD scid mice with confirmed tumor establishment. The mice were treated by administering bispecific antibody-38 and bispecific antibody-30, -31, -32, or -33. Assay using a humanized NOG mouse model was performed as follows. CD34-positive hematopoietic stem cells derived from umbilical cord blood were transplanted into NOG mice by tail vein injection. Human T cells are constantly supplied in the mice, which are called humanized NOG mice. The PC-10 cell line was transplanted into humanized NOG mice. The humanized NOG mice with confirmed establishment of PC-10 tumor were treated by administering antibody-38. Assay using a human CD3εδγ gene-modified mouse model was performed as follows. Cells of mouse-derived cell line forced to express human GPC3 were transplanted into a human CD3εδγ gene-modified mouse model, which had been prepared according to Reference Example 10. The human CD3εδγ gene-modified mice with confirmed tumor establishment were treated by administering antibody-38. […]

The test system of another experiment is PC-10 xenograft tumor. Description: In vivo drug efficacy, humanized NOG mouse model. On the set-up: species or system humanized NOG mice. Particulars: 0.008, 0.04, 0.2, or 1 mg/kg once through the tail vein, compared to the vehicle-administered group. The method, then:
as §1

Another experiment relates to NCI-H446 tumor tissues. The experiment is described as follows: Histopathological evaluation of HE-stained tumor tissues. It counts as in vivo, humanized NOG mice. The method, then: The tumor samples were prepared as follows. The tumor samples when antibody-38 was used in combination with a chemotherapeutic agent in the humanized NOG mouse model were prepared by the procedure described below. 2.5 Gy of X ray was irradiated to NOG mice (In-Vivo Science Inc., Y). On the following day, 1×10^5 CD34-positive hematopoietic stem cells which are derived from umbilical cord blood were transplanted into the NOG mice by tail vein injection. After 16 to 20 weeks, each of human cancer cell lines (MKN45 and NCI-H446) was mixed with Matrigel™ Basement Membrane Matrix, and transplanted subcutaneously into the humanized NOG mice. The day of transplantation was defined as Day 0.
When tumor was established, the mice were separated into groups based on tumor size and body weight. Antibody-38 and the pharmaceutical agents for use in combination were administered according to the dose and dosing regimen described in Table 21. The mice were euthanized at the timing described in Table 21, and tumor was excised and preserved for use in tumor infiltrating lymphocyte (TIL) analysis, pathological analysis, or RNA analysis.
With respect to histological analysis of tumor tissues, tumor samples from mice six days after administration of antibody-38 and paclitaxel were fixed in 10% formaldehyde neutral buffer solution. […]

B1: antibody-38: anti-human CD3ε chain and anti-human GPC3 bispecific antibody; H chains SEQ ID NO: 385 and 402, common L chains SEQ ID NO: 410 (antibody)
heavy 1: QVQLVQSGAEVKKPGASVTVSCKASGYTFTDYEMHWIRQPPGEGLEWIGAIDGPTPDTAYSEKFKGRVTLTADKSTSTAYMELSSLTSEDTAVYYCTRFYSYTYWGQGTLVTVSSASTKGPSVFPLAPCSRSTSESTAALGCLVKDYFPEPVTVSWNSGALTSGVHTFPAVLQSSGLYSLSSVVTVPSSSLGTQTYTCNVDHKPSNTKVDKRVESKYGPPCPPCPAPEFRGGPKVFLFPPKPKDTLMISRTPEVTCVVVDVSQEDPEVQFNWYVDGVEVHNAKTKPREEQFASTYRVVSVLTVLHQDWLNGKEYKCKVSNKGLPSSIEKTISKAKGQPREPQVYTLPPSQEEMTKNQVSLTCLVKGFYPSDIAVEWESNGQPENNYKTTPPVLDSDGSFFLYSKLTVDKSRWQEGNVFSCSVMHEALHNHYTQESLSLSP
heavy 2: QVQLVESGGGVVQPGGSLRLSCAASGFTFSNAWMHWVRQAPGKGLEWVAQIKDKSQNYATYVAESVKGRFTISRADSKNSIYLQMNSLKTEDTAVYYCRYVHYAAGYGVDIWGQGTTVTVSSASTKGPSVFPLAPCSRSTSESTAALGCLVKDYFPEPVTVSWNSGALTSGVHTFPAVLQSSGLYSLSSVVTVPSSSLGTKTYTCNVDHKPSNTKVDKRVESKYGPPCPPCPAPEFRGGPKVFLFPPKPKDTLMISRTPEVTCVVVDVSQEDPEVQFNWYVDGVEVHNAKTKPREEQFASTYRVVSVLTVLHQDWLNGKEYKCKVSNKGLPSSIEKTISKAKGQPREPQVYTLPPSQKEMTKNQVSLTCLVKGFYPSDIAVEWESNGQPENNYKTTPPVLDSDGSFFLYSKLTVDKSRWQEGNVFSCSVMHEALHNHYTQKSLSLSP
light: DIVMTQSPLSLPVTPGEPASISCRSSQPLVHSNRNTYLHWYQQKPGQAPRLLIYKVSNRFSGVPDRFSGSGSGTDFTLKISRVEAEDVGVYYCGQGTQVPYTFGQGTKLEIKRTVAAPSVFIFPPSDEQLKSGTASVVCLLNNFYPREAKVQWKVDNALQSGNSQESVTEQDSKDSTYSLSSTLTLSKADYEKHKVYACEVTHQGLSSPVTKSFNRGEC
modifications: An artificially generated sequence
On to B1, for which the anti-tumor effect result is reported as “evident anti-tumor effect” in experiment [1] and “evident, dose-dependent anti-tumor effect” in the experiment with PC-10 xenograft tumor. Besides, the immune cell infiltration result with NCI-H446 tumor tissues (antibody 38 administered, six days after administration) is listed as “observed around the tumor periphery”. Moreover, in the experiment on NCI-H446 tumor tissues (antibody-38 in combination with paclitaxel), the “immune cell infiltration area” value is given as “expanded”.
